# Results from US6967092 (dated 2005).
# Biological target: T1, human G-CSF receptor transfected in BaF3 cells (human, UniProt Q99062 25-836)
# T1 construct: whole, on cells; also called hG-CSF receptor; BaF3/hG-CSF
# Test: competition with an agonist-specific radioligand, BaF3 cells transfected with the G-CSF receptor
binder,measurement,value
G-CSF (ligand) not shown,IC50,0.69 nM
